Data taken from PMC8934638, “H3K36 methylation and DNA-binding both promote Ioc4 recruitment and Isw1b remodeler function”.

Assays:
[1] = target: T1, Ioc4 PWWP domain (Saccharomyces cerevisiae, UniProt Q04213 1-178); assay: EMSA; settings: 5% native PAGE (37.5:1) in 0.4x TBE, 2% glycerol, binding buffer, pH and temperature not given (as in …)
T1 sequence: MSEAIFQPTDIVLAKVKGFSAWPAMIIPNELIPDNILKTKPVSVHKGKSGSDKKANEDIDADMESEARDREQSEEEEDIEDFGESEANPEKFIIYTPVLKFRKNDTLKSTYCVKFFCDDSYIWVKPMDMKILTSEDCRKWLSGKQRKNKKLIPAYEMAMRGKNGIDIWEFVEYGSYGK

[2] = tested on: Isw1b complex (Isw1, Ioc2, Ioc4) (Saccharomyces cerevisiae); assay: EMSA; settings: peptide-ligated H3 (T45C), 5% native PAGE (37.5:1) in 0.4x TBE, 2% glycerol, binding buffer, pH and temperature not given (as in …)
[3] = target: T2, Ioc4 full-length (Saccharomyces cerevisiae, UniProt Q04213 1-475); assay: EMSA; settings: 5% native PAGE (37.5:1) in 0.4x TBE, 2% glycerol, binding buffer, pH and temperature not given (as in …)
T2 sequence: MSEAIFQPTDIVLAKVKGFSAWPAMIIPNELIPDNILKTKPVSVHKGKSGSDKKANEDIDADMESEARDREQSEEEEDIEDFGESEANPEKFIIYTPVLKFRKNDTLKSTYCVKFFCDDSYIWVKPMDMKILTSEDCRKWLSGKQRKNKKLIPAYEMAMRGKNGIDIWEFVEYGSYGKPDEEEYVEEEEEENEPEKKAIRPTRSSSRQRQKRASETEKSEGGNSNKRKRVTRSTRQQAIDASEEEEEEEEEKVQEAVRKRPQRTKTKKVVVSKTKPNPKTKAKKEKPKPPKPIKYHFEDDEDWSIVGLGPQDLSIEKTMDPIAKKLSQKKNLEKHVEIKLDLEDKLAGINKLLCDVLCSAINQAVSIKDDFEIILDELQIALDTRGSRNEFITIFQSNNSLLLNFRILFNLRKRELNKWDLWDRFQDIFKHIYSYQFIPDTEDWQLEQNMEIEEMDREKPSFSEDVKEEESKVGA

[4] = target: T1, Ioc4 PWWP domain; assay: EMSA; EMSA; 15 fmol NCP (30 fmol unmodified NCP) per reaction; 5% native PAGE (37.5:1) in 0.4x TBE, 2% glycerol; binding buffer, pH and temperature not given (as in cited work); settings: protein: recombinant; tags: N-terminal 6xHis; label: Cy5 on sense strand; blunt
[5] = target: T2, Ioc4 full-length; assay: as above; settings: protein: recombinant; tags: N-terminal 6xHis-MBP; label: Cy5 on sense strand; blunt
[6] = target: T1, Ioc4 PWWP domain; assay: EMSA; bound equally to the AT-rich substrate; EMSA; 15 fmol NCP (30 fmol unmodified NCP) per reaction; 5% native PAGE (37.5:1) in 0.4x TBE, 2% glycerol; binding buffer, pH and temperature not given (as in cited work); settings: protein: recombinant; tags: N-terminal 6xHis; label: Cy5 on sense strand; blunt
[7] = peptide-ligated H3 (T45C), K36me0, 15 fmol NCP (30 fmol unmodified NCP) per reaction
[8] = peptide-ligated H3 (T45C), K36me3, 15 fmol NCP (30 fmol unmodified NCP) per reaction
[9] = 15 fmol NCP (30 fmol unmodified NCP) per reaction

NCP unmodified, 147 bp 601
Kd ([1]; unmodified histones, 15 fmol NCP (30 fmol unmodified NCP) per reaction): 450 nM

NCP H3K36me0, 147 bp 601
Kd ([2]; K36me0, 15 fmol NCP (30 fmol unmodified NCP) per reaction): 57.3 nM | Kd [1, 7]: 400 nM | Kd [3, 7]: 11 nM

NCP H3K36me3, 147 bp 601
Kd ([2]; K36me3, 15 fmol NCP (30 fmol unmodified NCP) per reaction): 4.8 nM | Kd [1, 8]: 120 nM | Kd [3, 8]: 6.7 nM

RNA:DNA hybrid
Kd [1, 9]: 760 nM | Kd [3, 9]: 55 nM

B1: dsDNA 30 bp (601-derived EMSA probe) (dsDNA)
DNA 1: GGCAAGGTCGCTGTTCAATACATGCACAGG
DNA 2: CCTGTGCATGTATTGAACAGCGACCTTGCC
Kd [4]: 810 nM | Kd [5]: 34 nM

B2: dsRNA 30 bp (AT rich) (dsRNA)
RNA 1: GGCAAGGUCGCUGUUCAAUACAUGCACAGG
RNA 2: CCUGUGCAUGUAUUGAACAGCGACCUUGCC
Kd [4]: 1800 nM | Kd [5]: 56 nM

B3: dsRNA 25 bp GC rich (dsRNA)
RNA 1: CCCGGUGCCGAGGCCGCUCAAUUGG
RNA 2: CCAAUUGAGCGGCCUCGGCACCGGG
binding result [6]: binds
